# Assay results as given in patent US20210030885A1, “HUMANIZED ANTI-LIV1 ANTIBODIES FOR THE TREATMENT OF CANCER” (priority 2019, published 2021).
# Marks after values point to notes of the source that are not given here.
# Legend:
# [1] = Observed pharmacokinetics of ADC and MMAE after LV Q1W or Q3W dosing; type: in vivo, human
# Procedure: To investigate if fractionated dosing could increase treatment efficacy or reduce the number and severity of adverse events, various fractionated dosing schemes of ladiratuzumab vedotin (LV) were tested to measure for changes in Cmax, Ctrough, and AUC at similar total dose intensities and exposure.
# Breast cancer patients were treated with (LV).
# LV was administered as 30-minute IV infusion at the indicated interval. […]
# patients = assay: Adverse event incidence with previous LV dosing regimen 2.5 mg/kg Q3W; type: in vivo, human; details: n = 65
# [2] = MMAE, LV 1.0 mg/kg weekly (obs.), n = 4, geometric mean (CV %)
# [3] = MMAE, LV 2.5 mg/kg q3wk (obs.), geometric mean (CV %)
substance,measurement,setting,value
ladiratuzumab vedotin [LV],AUC0-21,"[1]; ADC, 1.0 mg/kg weekly (obs.), n = 4, estimated from observed AUC0-7 d of Cycle 1 Dose #1 and Dose #3",215.4* μg*day/mL
same,Cmax,"[1]; ADC, 1.0 mg/kg weekly (obs.), n = 4, geo. mean (CV %)",31.4 (25) μg/mL
same,Ctrough,"[1]; ADC, 1.25 mg/kg weekly (obs.), n = 1",7.64 µg/mL
same,AUC0-21,"[1]; ADC, 1.25 mg/kg weekly (obs.), n = 5, estimated from observed AUC0-7 d of Cycle 1 Dose #1 and Dose #3",266.9* μg*day/mL
same,Cmax,"[1]; ADC, 1.25 mg/kg weekly (obs.), n = 5, geo. mean (CV %)",43.3 (31) μg/mL
same,AUC0-21,"[1]; ADC, 2.5 mg/kg q3wk (obs.), n = 97, geo. mean (CV %)",210 (27) μg*day/mL
same,Cmax,"[1]; ADC, 2.5 mg/kg q3wk (obs.), n = 131, geo. mean (CV %)",85 (27) μg/mL
same,AUC0-21,"[1]; MMAE, LV 1.0 mg/kg weekly (obs.), n = 4, estimated from observed AUC0-7 d of Cycle 1 Dose #1 and Dose #3",29.7* μg*day/mL
same,Cmax,[1]; [2],2.1 (61) μg/mL
same,Ctrough,[1]; [2],1.26(75) μg/mL
same,Ctrough,"[1]; MMAE, LV 1.25 mg/kg weekly (obs.), n = 2, geometric mean (CV %)",2.95(160) μg/mL
same,AUC0-21,"[1]; MMAE, LV 1.25 mg/kg weekly (obs.), n = 5, estimated from observed AUC0-7 d of Cycle 1 Dose #1 and Dose #3",53.6* μg*day/mL
same,Cmax,"[1]; MMAE, LV 1.25 mg/kg weekly (obs.), n = 5, geometric mean (CV %)",3.74 (68) μg/mL
same,AUC0-21,[1]; [3],50.3 (61) μg*day/mL
same,Cmax,[1]; [3],5.55 (56) μg/mL
same,Ctrough,[1]; [3],0.34 (80) μg/mL
same,Adverse event incidence: Abdominal Pain,patients,18 (28%)
same,Adverse event incidence: Alopecia,patients,22 (34%)
same,Adverse event incidence: Constipation,patients,32 (49%)
same,Adverse event incidence: Decreased Appetite,patients,29 (45%)
same,Adverse event incidence: Diarrhea,patients,23 (35%)
same,Adverse event incidence: Fatigue,patients,38 (59%)
same,Adverse event incidence: Hypokalemia,patients,17 (26%)
same,Adverse event incidence: Nausea,patients,32 (49%)
same,Adverse event incidence: Neutropenia,patients,19 (29%)
same,Adverse event incidence: Peripheral Sensory Neuropathy,patients,21 (32%)
same,Adverse event incidence: Vomiting,patients,14 (22%)
